Assay results taken from patent US20220259284A1, “CA2 COMPOSITIONS AND METHODS FOR TUNABLE REGULATION” (Obsidian Therapeutics, Inc., priority 2019, published 2022).

What was measured:
[1] = test system: CD40L constructs regulated by Carbonic anhydrase DDs in T cells; assay: Acetazolamide dose response of CD40L expression in transduced T cells, FACS (MFI, % CD40L positive); format: cell-based, human; settings: for CD40L MFI / Percentage CD40L positive cells: 24 hours; for CD40L MFI: FACS
Description: (§1) CD40L constructs regulated by Carbonic anhydrase DDs were generated and cloned into lentiviral vectors. Purified T cells were thawed and cultured with aCD3 aCD28 Dynabeads (in the ratio of 3 beads to 1 T cell).
The constructs were transduced in T cells the next day. […] 24 hours after the addition of ligand T cells were stained for CD40L expression and analyzed using FACS.

[2] = test system: monocyte derived dendritic cells (DCs), Nalm6; assay: IFNg and IL-12 in supernatant of DC + Nalm6 + CAR+ T cell co-culture, MSD; format: cell-based; settings: DC + T cells + Nalm6, no ligand stated, supernatant 24 hours
Description: To measure the effect of CD40L expression that is tuned by the biocircuits of the present disclosure in the context of CARs, T cells expressing any of the CA2 CD40L-CAR constructs described herein were co-cultured with monocyte derived dendritic cells (DCs).
In vitro cultures were set up by adding 1×10^4 DCs into culture with 1×10^5 Nalm6 and 1×10^5 CAR+ T cells. […] Supernatants were collected 24 hours later and analyzed for IFNg and IL-12 by MSD assay. OT-001661 (SEQ ID NO. 6067; encoded by SEQ ID NO. 6068), that expressed CD40L payloads constitutively was used as control.

[3] = test system: CA2 regulated CD40L in activated T cells; assay: Regulation of CD40L in T cells by CA2, percent of cells expressing CD40L (surface expression); format: cell-based, human; settings: ligand N/A
Description: To test regulation, activated T cells were lentivirally transduced with CA2 regulated CD40L (OT-001990) and a control of CD40L (OT-001661). Two days later, cells were treated with vehicle or […] ligand for 24h as described in Table 14 after which they were analyzed for CD40L surface expression. In the table, “Acz” is Acetazolamide.

[4] = test system: CD40L constructs regulated by Carbonic anhydrase DDs in T cells; assay: Time course regulation of CD40L in transduced T cells, FACS (MFI, % CD40L positive); format: cell-based, human; settings: constitutive CD40L
Description: as §1
A control of empty vector (EV) and constitutive CD40L (OT-001661; amino acid SEQ ID NO. 6067 and nucleic acid SEQ ID NO. 6068) was also evaluated. Cells were fixed at 2, 4, 6, 8, 24, and 48 hours and then T cells were stained for CD40L expression and analyzed using FACS. The results are shown as median fluorescence intensity in Table 12 and as percentage CD40L positive cells in Table 13.

[5] = test system: CA2 regulated CD40L in activated T cells; assay: Regulation of CD40L in T cells by CA2, percent of cells expressing CD40L (surface expression); format: cell-based, human; settings: All Cells, ligand N/A
CD40L in HEK293T cells = assay: Soluble CD40L (shedding) in medium of transfected HEK293T cells, ELISA; format: cell-based, human; settings: HEK293T cell culture medium, no ligand stated, Repeat 1

CC(=O)Nc1nnc(S(N)(=O)=O)s1 [Acetazolamide]
CD40L MFI ([1]; CD4+ T cells with CA2 DD CD40L construct (OT-001990), Acetazolamide 0.01 μM): 112
Percentage CD40L positive cells ([1]; CD4+ T cells with CA2 DD regulated CD40L construct, Acetazolamide 0.01 μM): 4.13%
Percentage CD40L positive cells ([1]; CD4+ T cells with CA2 DD regulated CD40L construct, Acetazolamide 0.05 μM): 5.44%
Percentage CD40L positive cells ([1]; CD4+ T cells with CA2 DD regulated CD40L construct, Acetazolamide 0.2 μM): 10.3%
Percentage CD40L positive cells ([1]; CD4+ T cells with CA2 DD regulated CD40L construct, Acetazolamide 0.8 μM): 45.6%
Percentage CD40L positive cells ([1]; CD4+ T cells with CA2 DD regulated CD40L construct, Acetazolamide 3.1 μM): 69.3%
Percentage CD40L positive cells ([1]; CD4+ T cells with CA2 DD regulated CD40L construct, Acetazolamide 12.5 μM): 90.3%
Percentage CD40L positive cells ([1]; CD4+ T cells with CA2 DD regulated CD40L construct, Acetazolamide 50 μM): 91.1%
CD40L MFI ([1]; CD4+ T cells, Acetazolamide 0.2 μM): 185
CD40L MFI ([1]; CD4+ T cells, Acetazolamide 0.8 μM): 481
CD40L MFI ([1]; CD4+ T cells, Acetazolamide 3.1 μM): 840
CD40L MFI ([1]; CD4+ T cells, Acetazolamide 12.5 μM): 2783
CD40L MFI ([1]; CD4+ T cells, Acetazolamide 50 μM): 3728
amount of Acetazolamide required to achieve stabilization of CD40L ([1]; CD4+ and CD8+ T cells): within the level of the ligand that can be achieved in humans
CD40L MFI ([1]; CD8+ T cells with CA2 DD CD40L construct (OT-001990), Acetazolamide 0.01 μM): 105
Percentage CD40L positive cells ([1]; CD8+ T cells with CA2 DD regulated CD40L construct, Acetazolamide 0.01 μM): 0.59%
Percentage CD40L positive cells ([1]; CD8+ T cells with CA2 DD regulated CD40L construct, Acetazolamide 0.05 μM): 0.44%
Percentage CD40L positive cells ([1]; CD8+ T cells with CA2 DD regulated CD40L construct, Acetazolamide 0.2 μM): 1.48%
Percentage CD40L positive cells ([1]; CD8+ T cells with CA2 DD regulated CD40L construct, Acetazolamide 0.8 μM): 25.2%
Percentage CD40L positive cells ([1]; CD8+ T cells with CA2 DD regulated CD40L construct, Acetazolamide 3.1 μM): 41.2%
Percentage CD40L positive cells ([1]; CD8+ T cells with CA2 DD regulated CD40L construct, Acetazolamide 12.5 μM): 77.2%
Percentage CD40L positive cells ([1]; CD8+ T cells with CA2 DD regulated CD40L construct, Acetazolamide 50 μM): 80.7%
CD40L MFI ([1]; CD8+ T cells, Acetazolamide 0.05 μM): 104
CD40L MFI ([1]; CD8+ T cells, Acetazolamide 0.2 μM): 136
CD40L MFI ([1]; CD8+ T cells, Acetazolamide 0.8 μM): 307
CD40L MFI ([1]; CD8+ T cells, Acetazolamide 3.1 μM): 380
CD40L MFI ([1]; CD8+ T cells, Acetazolamide 12.5 μM): 1599
CD40L MFI ([1]; CD8+ T cells, Acetazolamide 50 μM): 2184

B1: OT-001661: constitutive CD40L control; amino acid SEQ ID NO. 6067 and nucleic acid SEQ ID NO. 6068 (protein)
chain: MHMIETYNQTSPRSAATGLPISMKIFMYLLTVFLITQMIGSALFAVYLHRRLDKIEDERNLHEDFVFMKTIQRCNTGERSLSLLNCEEIKSQFEGFVKDIMLNKEETKKENSFEMQKGDQNPQIAAHVISEASSKTTSVLQWAEKGYYTMSNNLVTLENGKQLTVKRQGLYYIYAQVTFCSNREASSQAPFIASLCLKSPGRFERILLRAANTHSSAKPCGQQSIHLGGVFELQPGASVFVNVTDPSQVSHGTGFTSFGLLKL
notes: constitutive CD40L control; 6068
IFNg [2]: 1579.21 pg/mL
IL12 [2]: 58.88 pg/mL
MFI ([3]; All Cells): 20451
CD40L positive ([3]; CD4+ T cells): 98.7%
MFI ([3]; CD4+ T cells): 24489
CD40L positive ([3]; CD8+ T cells): 97.8%
MFI ([3]; CD8+ T cells): 14352
CD40L MFI ([4]; CD4+ T cells, 2 hours): 4042
Percentage CD40L positive cells ([4]; CD4+ T cells, 2 hours): 72.8%
CD40L MFI ([4]; CD4+ T cells, 4 hours): 4651
Percentage CD40L positive cells ([4]; CD4+ T cells, 4 hours): 77%
CD40L MFI ([4]; CD4+ T cells, 6 hours): 3156
Percentage CD40L positive cells ([4]; CD4+ T cells, 6 hours): 67.2%
CD40L MFI ([4]; CD4+ T cells, 24 hours): 9491
Percentage CD40L positive cells ([4]; CD4+ T cells, 24 hours): 93.3%
CD40L MFI ([4]; CD4+ T cells, 48 hours): 5639
Percentage CD40L positive cells ([4]; CD4+ T cells, 48 hours): 88.5%
CD40L MFI ([4]; CD8+ T cells, 2 hours): 2212
Percentage CD40L positive cells ([4]; CD8+ T cells, 2 hours): 56.9%
CD40L MFI ([4]; CD8+ T cells, 4 hours): 2994
Percentage CD40L positive cells ([4]; CD8+ T cells, 4 hours): 63.2%
CD40L MFI ([4]; CD8+ T cells, 6 hours): 1773
Percentage CD40L positive cells ([4]; CD8+ T cells, 6 hours): 48.5%
CD40L MFI ([4]; CD8+ T cells, 24 hours): 3563
Percentage CD40L positive cells ([4]; CD8+ T cells, 24 hours): 71.2%
CD40L MFI ([4]; CD8+ T cells, 48 hours): 2313
Percentage CD40L positive cells ([4]; CD8+ T cells, 48 hours): 71.1%
CD40L positive [5]: 98%
sCD40L (CD40L in HEK293T cells): 2900 pg/mL
